Measured values as given in article PMC2853223 (ACS chemical biology, 2009).

B1: PikAIV KSdd residues 1-37 (the PikAIV part of P3P4dock) (domain or fragment, UniProt Q9ZGI2 1-37, looked up)
chain: MTSSNEQLVDALRASLKENEELRKESRRRADRRQEPM
B2: P3P4dock (amino acids 1534-1562 of PikAIII ACPdd fused to amino acids 1-37 of the KSdd of PikAIV) (other)
chain: SNADPGAEPEASIDDLDAEALIRMALGPRNTMTSSNEQLVDALRASLKENEELRKESRRRADRRQEPM
B3: PikAIII ACPdd-FL (PikAIII ACPdd with an added C-terminal cysteine labelled with BODIPY-FL) (domain or fragment)
chain: LAPAEPAPTDWEGRVRRALAELPLDRLRDAGVLDTVLRLTGIEPEPGSGGSDGGAADPGAEPEASIDDLDAEALIRMALGPRNTC
modifications: BODIPY-FL (iodoacetamide) on the added C-terminal cysteine

Experiments:
[1] = target: T1, PikAIII ACPdd (N-terminally His-tagged discrete C-terminal docking domain of PikAIII) (UniProt Q9ZGI3 1479-1562); test: SPR
T1 sequence (looked up): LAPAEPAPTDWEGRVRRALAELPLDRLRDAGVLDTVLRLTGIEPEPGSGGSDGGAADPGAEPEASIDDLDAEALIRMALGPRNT

[2] = target: the molecule itself; test: crystal structure
[3] = target: B1; test: crystal structure
[4] = target: PikAIV full module (post-translational modification of its ACP domain (grown in BAP1 E. coli cells)); test: fluorescence polarisation

With MTSSNEQLVDALRASLKENEELRKESRRRADRRQEPM (domain or fragment, UniProt Q9ZGI2 1-37, looked up) [PikAIV KSdd (discrete N-terminal docking domain of PikAIV, tagless)] the Kd [1] was 73 ± 43 µM, the koff [1] was 0.21 ± 0.03 s⁻¹ and the kon [1] was 3000 ± 1800 M⁻¹ s⁻¹.

B1: binds [2].

B2: binds [2].

ADPGAEPEASIDDLDAEALIRMALGPRNT (domain or fragment, UniProt Q9ZGI3 1534-1562, looked up) [PikAIII ACPdd residues 1534-1562 (the PikAIII part of P3P4dock)]: binds [3].

B3 was tested, and the Kd [4] was 5 ± 1 µM.
